The term EC50 denotes the concentration that produces a half-maximal response. In general, Kd refers to the concentration at which binding is half-saturated. Usually koff stands for the rate constant with which the complex falls apart. For orientation: kon means the second-order rate constant of association.

18 molecules from US20200199244A1 (published 2020) can be followed below.

For test [1], the target named is T1, human CD40 (BMS, CY24FEB06-01) (human, UniProt P25942 21-193).
T1 construct: Soluble reagent of the bead and ELISA RBA; It is detected with an anti-human IgG (Fc) mAb, so it may be a CD40-Ig fusion
As to the kind of experiment: bead RBA, competition with IZ-CD40L.

The next test deals with human CD40 (human, UniProt P25942 21-277). The experiment in a line: cell-based or functional assay.
Another test deals with T2, cynomolgus serum albumin (cynomolgus, UniProt A2V9Z4 25-608).
T2 construct: Amine-coupled to a CM5 BIAcore chip; also called CSA; Cyno Serum Albumin
T2 sequence (A2V9Z4 25-608 limits assumed): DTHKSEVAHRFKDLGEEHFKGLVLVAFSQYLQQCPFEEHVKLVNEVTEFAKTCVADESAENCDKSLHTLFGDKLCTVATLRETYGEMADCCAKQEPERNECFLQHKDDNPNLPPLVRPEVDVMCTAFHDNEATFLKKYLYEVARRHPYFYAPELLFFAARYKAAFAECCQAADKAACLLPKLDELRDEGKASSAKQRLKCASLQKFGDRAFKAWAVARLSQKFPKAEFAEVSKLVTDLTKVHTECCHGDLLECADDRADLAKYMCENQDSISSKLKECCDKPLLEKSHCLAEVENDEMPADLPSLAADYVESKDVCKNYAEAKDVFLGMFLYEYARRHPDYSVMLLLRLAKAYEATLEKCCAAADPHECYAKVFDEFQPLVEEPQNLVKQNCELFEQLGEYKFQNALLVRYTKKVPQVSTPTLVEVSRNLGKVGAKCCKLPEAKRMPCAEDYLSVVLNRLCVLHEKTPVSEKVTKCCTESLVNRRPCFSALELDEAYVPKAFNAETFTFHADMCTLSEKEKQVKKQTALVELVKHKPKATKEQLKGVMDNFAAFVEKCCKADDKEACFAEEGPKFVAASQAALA
The experiment in a line: SPR (BIAcore 3000), CSA amine-coupled on CM5 chip, ILF as analyte, 1:1 Langmuir fit, 25 C.

The target of a further test is T3, human serum albumin (human, UniProt P02768 25-609).
T3 construct: Amine-coupled to a CM5 BIAcore chip; also called HSA
T3 sequence (P02768 25-609 limits assumed): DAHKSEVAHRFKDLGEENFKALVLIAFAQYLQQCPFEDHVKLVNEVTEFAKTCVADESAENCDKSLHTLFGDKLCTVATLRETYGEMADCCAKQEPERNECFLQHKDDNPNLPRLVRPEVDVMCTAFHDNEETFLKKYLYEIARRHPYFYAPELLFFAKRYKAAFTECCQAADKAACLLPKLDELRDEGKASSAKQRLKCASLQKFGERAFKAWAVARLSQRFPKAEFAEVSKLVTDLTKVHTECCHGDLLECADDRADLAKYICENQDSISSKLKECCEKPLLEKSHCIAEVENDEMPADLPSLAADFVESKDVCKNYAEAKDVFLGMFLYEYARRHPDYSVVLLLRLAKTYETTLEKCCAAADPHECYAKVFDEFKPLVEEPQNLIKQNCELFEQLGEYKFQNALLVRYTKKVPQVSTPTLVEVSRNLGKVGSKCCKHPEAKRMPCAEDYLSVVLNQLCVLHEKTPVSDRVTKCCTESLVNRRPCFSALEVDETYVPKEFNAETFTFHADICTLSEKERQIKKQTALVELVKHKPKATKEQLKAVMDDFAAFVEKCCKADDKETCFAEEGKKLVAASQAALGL
The experiment in a line: SPR (BIAcore 3000), HSA amine-coupled on CM5 chip, ILF as analyte, 1:1 Langmuir fit, 25 C.

In test [2] the target is human CD40 on RAMOS human B cells (human, UniProt P25942 21-277). As to the kind of experiment: cell-based or functional assay.
Test [3] addresses T4, human CD40 (BMS, CY24FEB06-01) (human, UniProt P25942 21-193).
T4 construct: Soluble human CD40 reagent of the ELISA RBA
As to the kind of experiment: ELISA RBA, competition with IZ-CD40L for soluble human CD40.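 Also: Neutravidin-coated 384-well plates, dAb–human CD40 complex incubated 2 h at room temperature, read-out as absorbance at 450 nm.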 A general note: In an ELISA, binding on a coated surface is turned into a signal by an enzyme label.

Test [4] deals with T5, human CD40 (H76R, W109L, L121P) Fc fusion (human).
T5 construct: As m1 with H76R, W109L and L121P; also called hCD40-M5; not shown: human IgG1 Fc
T5 chain: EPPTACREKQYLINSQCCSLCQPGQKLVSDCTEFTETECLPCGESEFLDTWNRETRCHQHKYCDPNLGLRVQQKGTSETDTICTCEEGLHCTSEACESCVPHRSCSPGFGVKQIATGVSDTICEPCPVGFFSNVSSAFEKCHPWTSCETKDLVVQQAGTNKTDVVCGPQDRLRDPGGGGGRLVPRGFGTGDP
As to the kind of experiment: SPR ProteOn XPR36.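 Also: surface plasmon resonance with CD40-Fc fusions captured through their Fc on an anti-human IgG chip, sensorgrams reference-subtracted against surfaces lacking CD40-Fc.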

Test [5] has as its target T6, wild type cynomolgus monkey CD40 Fc fusion (cynomolgus monkey; human).
T6 construct: also called wt-cyno-CD40; wt-cCD40; not shown: human IgG1 Fc
T6 chain: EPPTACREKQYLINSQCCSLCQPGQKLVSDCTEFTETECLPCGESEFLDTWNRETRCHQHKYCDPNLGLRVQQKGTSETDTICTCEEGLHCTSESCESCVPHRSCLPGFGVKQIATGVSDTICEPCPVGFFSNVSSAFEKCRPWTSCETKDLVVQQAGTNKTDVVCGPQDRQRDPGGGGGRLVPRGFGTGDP
As to the kind of experiment: SPR ProteOn XPR36.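 Also: surface plasmon resonance with CD40-Fc fusions captured through their Fc on an anti-human IgG chip, sensorgrams reference-subtracted against surfaces lacking CD40-Fc.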

Test [6] concerns the target T7, human CD40 (W109L, L121P) Fc fusion (human, UniProt P25942 21-193).
T7 construct: As m1 with W109L and L121P; also called hCD40-M4; not shown: human IgG1 Fc
The experiment in a line: SPR ProteOn XPR36.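 Also: surface plasmon resonance with CD40-Fc fusions captured through their Fc on an anti-human IgG chip, sensorgrams reference-subtracted against surfaces lacking CD40-Fc.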

Several values for one entry are separate records, joined by “and”; a condition that tells them apart may be missing. Equal values may be shown once.

Excerpt for cynomolgus serum albumin: (§1) A BIAcore™ 3000 instrument (GE Healthcare) was used to analyze the binding kinetics of anti-CD40-AlbudAb ILFs to human and cynomolgus serum albumin. Approximately 400 response units (RU) of human serum albumin (HSA) or cynomolgus serum albumin (CSA) were immobilized on a flow-cell of a CM5 BIAcore™ chip using an Amine Coupling Kit (GE Healthcare). A second flow cell without any ligand immobilized served as a reference flow-cell for inline referencing. An appropriate doubling dilution series of each dAb to be analyzed was prepared in HBS-EP buffer (0.01 M HEPES pH 7.4 with 0.15 M NaCl, 3 mM EDTA and 0.005% v/v Surfactant P20, GE Healthcare). Two hundred microlitres of each ILF were injected in duplicate using the instrument's KINJECT function. The injections were made across the serum albumin-immobilized and reference flow-cells in series, with inline subtraction of the signal from the reference cell. The experiment was performed at 25° C. and a flow rate of 40 μl/min of HBS-EP. After each injection had been completed, the dAb was allowed to dissociate from the ligand in buffer for 120 s before regeneration with a 10 μl injection of 10 mM glycine pH 2.0. A reference injection of HBS-EP buffer blank (containing no analyte) was also injected under the same conditions to serve as a second reference for subtraction from each analyte trace. BIAevaluation 4.1 software (GE Healthcare) was used to subtract both the reference flow-cell trace and the buffer blank trace from each analyte trace.
(§2) The same software was used to perform a simultaneous, global fit of a 1:1 (Langmuir) kinetic model to the association and dissociation phases of the analyte dilution series traces. This model yielded association and dissociation rate constants (kₐ and kd, respectively) and the equilibrium dissociation constant (KD) of the interaction.
Excerpt for human serum albumin: as §1, §2

B1: BMS3h-131 (other)
VL: DIQMTQSPSSLSASVGDRVTITCRANSSILWALAWYQQKPGKAPKLLIESSSGLQSGVPSRFSGSGSGTDFTLTISSLQPEDFATYYCVQNAGWPGTFGQGTKVEIKR
notes: dAb, single VK
B1: in test [1], the concentration for a half-maximal effect (EC50) was 500 nM and > 1000 nM.

B2: BMS3h-38 (other)
VH: EVQLLESGGGLVQPGGSLRLSCAASGFTFEEEEMIWVRQAPGKGLEWVSAISGSGGSTYYADSVKGRFTISRDNSKNTLYLQMNSLRAEDTAVYYCAKEPFRFDYWGQGTLVTVSS
notes: dAb, single VH
Turning to B2, the 50% effective concentration (EC50) in test [1] was 600 nM and 650 nM.

B3: BMS3h-41 (other)
VH: EVQLLESGGGLVQPGGSLRLSCAASGFTFTEYEMIWVRQAPGKGLEWVSSISGNGANTYYADSVKGRFTISRDNSKNTLYLQMNSLRAEDTAVYYCAKEPLRFDYWGQGTLVTVSS
notes: dAb, single VH
Turning to B3, the EC50 in [1] was 2000 nM and 1600 nM.

B4: BMS3h-193 (other)
VL: DIQMTQSPSSLSASVGDRVTITCRASQTIERRLNWYQQKPGKAPKLLIYLASRLQSGVPSRFSGSGSGTDFTLTISSLQPEDFATYYCHQYASPPLTFGQGTKVEIKR
notes: dAb, single VK
Turning to B4, a half-maximal response in test [1] (EC50) required 1000 nM.

B5: BMS3h-197 (other)
VH: EVQLLESGGGLVQPGGSLRLSCAASGFTFGSAAMDWVRQAPGKGLEWVSSINDMGSNTYYADSVKGRFTISRDNSKNTLYLQMNSLRAEDTAVYYCAKQGGRFDYWGQGTLVTVSS
notes: dAb, single VH
The molecule B5 returned a concentration for a half-maximal effect (EC50) in test [1] of 30 nM.

B6: DMS0662 DOM7h-11-90-TVAAPS-BMS3h-56-201 (bispecific antibody)
chain: DIQMTQSPSSLSASVGDRVTITCRASRPIGTMLSWYQQKPGKAPKLLILAFSRLQSGVPSRFSGSGSGTDFTLTISNLQPEDFATYYCAQAGTHPTTFGQGTKVEIKRTVAAPSEVQLLESGGGLVQPGGSLRLSCAASGFTFRDYEMWWVRQAPGKGLERVSAINPQGTRTYYADSVKGRFTISRDNSKNTLYLQMNSLRAEDTAVYYCAKLPFYFQEWGQGTLVTVSS
notes: AlbudAb inline fusion (ILF): an anti-CD40 dAb and an anti-serum-albumin dAb joined by a linker in one polypeptide
In the case of B6, in the test with human CD40, the “ICAM-1 Cell Assay EC50 (nM), 10% bovine serum” value stood at 33.5 nM and the “ICAM-1 Cell Assay EC50 (nM), 10% human serum” value was greater than 1000 nM. Moreover, in the test with cynomolgus serum albumin, the Kd is 2.5 nM and 2.42 nM; the off-rate constant (koff) was 0.00252 s⁻¹ and 0.00266 s⁻¹; the kon was 1.01e+06 M⁻¹ s⁻¹ and 1.1e+06 M⁻¹ s⁻¹. Besides, in the test with human serum albumin, the dissociation constant (Kd) is 1.21 nM and 1.23 nM; the koff was 0.00133 s⁻¹ and 0.00147 s⁻¹; the kon was 1.1e+06 M⁻¹ s⁻¹ and 1.19e+06 M⁻¹ s⁻¹.

B7: DMS0663 DOM7h-11-86-TVAAPS-BMS3h-56-201 (bispecific antibody)
chain: DIQMTQSPSSLSASVGDRVTITCRASRPIGTMLSWYQQKPGKAPKLLILAFSRLQSGVPSRFSGSGSGTDFTLTISSLQPEDVATYYCAQAGTHPTTFGQGTKVEIKRTVAAPSEVQLLESGGGLVQPGGSLRLSCAASGFTFRDYEMWWVRQAPGKGLERVSAINPQGTRTYYADSVKGRFTISRDNSKNTLYLQMNSLRAEDTAVYYCAKLPFYFQEWGQGTLVTVSS
notes: as for B6
B7: in the test with human CD40, the “ICAM-1 Cell Assay EC50 (nM), 10% bovine serum” value was found to be 21.4 nM and the “ICAM-1 Cell Assay EC50 (nM), 10% human serum” value is greater than 1000 nM. Moreover, in the test with cynomolgus serum albumin, the dissociation constant Kd is 2.38 nM and 2.52 nM; the off-rate constant (koff) was 0.00281 s⁻¹ and 0.00296 s⁻¹; the kon came out at 1.18e+06 M⁻¹ s⁻¹. In the test with human serum albumin, the Kd is 1.12 nM and 1.21 nM; the koff is 0.0014 s⁻¹ and 0.0016 s⁻¹; the on-rate (kon) was 1.25e+06 M⁻¹ s⁻¹ and 1.32e+06 M⁻¹ s⁻¹.

B8: DMS0664 DOM7h-11-69-TVAAPS-BMS3h-56-201 (bispecific antibody)
chain: DIQMTQSPSSLSASVGDRVTITCRASRPIGTMLSWYQQKPGKAPKLLILAFSRLQSGVPSRFSGSGSGTDFTLTISSLQPEDFATYYCAQAGVHPTTFGQGTKVEIKRTVAAPSEVQLLESGGGLVQPGGSLRLSCAASGFTFRDYEMWWVRQAPGKGLERVSAINPQGTRTYYADSVKGRFTISRDNSKNTLYLQMNSLRAEDTAVYYCAKLPFYFQEWGQGTLVTVSS
notes: as for B6
For the molecule B8, in the test with human CD40, the “ICAM-1 Cell Assay EC50 (nM), 10% bovine serum” value turned out to be 16.5 nM and the “ICAM-1 Cell Assay EC50 (nM), 10% human serum” value is greater than 1000 nM. Moreover, in the test with cynomolgus serum albumin, the Kd is 1.09 nM and 2.97 nM; the koff is 0.00273 s⁻¹ and 0.00272 s⁻¹; the kon is 2.51e+06 M⁻¹ s⁻¹ and 920000 M⁻¹ s⁻¹. Besides, in the test with human serum albumin, the Kd was 0.57 nM and 1.59 nM; the dissociation rate constant (koff) is 0.00142 s⁻¹ and 0.00149 s⁻¹; the kon is 2.5e+06 M⁻¹ s⁻¹ and 930000 M⁻¹ s⁻¹.

B9: BMS3h-56-215 (other)
VH: EVQLLESGGGLVQPGGSLRLSCAASGFTFRDYEMWWVRQAPGKGLERVSAINPHGSLTYYADSVKGRFTISRDNSKNTLYLQMNSLRAEDTAVYYCAKLPFTFDDWGQGTLVTVSS
notes: domain antibody (dAb): single human VH domain
For the molecule B9, in [2], the “EC50 ICAM1 cell assay” value stood at 40 nM. In test [3], the EC50 was 3.2 nM and 4.6 nM.

B10: BMS3h-56-1 (other)
VH: EVQLLESGGGLVQPGGSLRLSCAASGFTFRDYEMWWVRQAPGKGLERVSAINPQGTRTYYADSVKGRFTISRDNSKNTLYLQMNSLRAEDTAVYYCAKLPFTFEDWGQGTLVTVSS
notes: domain antibody (dAb), single VH domain; also called 3h-56-l
Consider B10, for which the binding result in test [4], in test [5] and in test [6] was “no binding (tested: 405 nM)” each time.

B11: BMS3h-56 (other)
VH: EVQLLESGGGLVQPGGSLRLSCAASGFTFRDYEMWWVRQAPGKGLERVSAINPQGTRTYYADSVKGRFTISRDNSKNTLYLQMNSLRAEDTAVYYCAKLPFIFDYWGQGTLVTVSS
notes: dAb, single VH
Regarding B11, in test [1], the concentration for a half-maximal effect (EC50) was 1000 nM and 500 nM.

B12: BMS3h-56-217 (other)
VH: EVQLLESGGGLVQPGGSLRLSCAASGFTFRDYEMWWVRQAPGKGLERVSAINPWGSLTYYADSVKGRFTISRDNSKNTLYLQMNSLRAEDTAVYYCAKLPFTFEDWGQGTLVTVSS
notes: domain antibody (dAb), single VH domain
Consider B12, for which the binding result in test [4], in test [5] and in [6] was “no binding (tested: 405 nM)” each time.

B13: BMS3h-56-202 (other)
VH: EVQLLESGGGLVQPGGSLRLSCAASGFTFRDYEMWWVRQAPGKGLERVSAINPQGTRTYYADSVKGRFTISRDNSKNTLYLQMNSLRAEDTAVYYCAKLPTYFSDRGQGTLVTVSS
notes: as for B12
B13: the binding result in test [4], in test [5] and in test [6] was “no binding (tested: 405 nM)” each time.

B14: BMS3h-56-2 (other)
VH: EVQLLESGGGLVQPGGSLRLSCAASGFTFRDYEMWWVRQAPGKGLERVSAINPQGTRTYYADSVKGRFTISRDNSKNTLYLQMNSLRAEDTAVYYCAKLPFTFDDWGQGTLVTVSS
notes: as for B12
For B14, the binding result in test [4], in [5] and in test [6] was “no binding (tested: 405 nM)” in each case.

B15: BMS3h-37 (other)
VH: EVQLLESGGGLVQPGGSLRLSCAASGFTFEWYEMQWVRQAPGKGLEWVSAISGDGYRTYYADSVKGRFTISRDNSKNTLYLQMNSLRAEDTAVYYCAKELGYFDYWGQGTLVTVSS
notes: dAb, single VH
On to B15, for which, in [1], the EC50 was 100 nM and 200 nM.

B16: BMS3h-56-5 (other)
VH: EVQLLESGGGLVQPGGSLRLSCAASGFTFRDYEMWWVRQAPGKGLERVSAINPQGTRTYYADSVMGRFTISRDNSKNTLYLQMNSLRAEDTAVYYCAKLPFTFDDWGQGTLVTVSS
notes: as for B12
For the molecule B16, the binding result in [4], in [5] and in test [6] was “no binding (tested: 405 nM)” in each case.

B17: BMS3h-56-206 (other)
VH: EVQLLESGGGLVQPGGSLRLSCAASGFTFRDYEMWWVRQAPGKGLERVSAINPQGTRTYYADSVKGRFTISRDNSKNTLYLQMNSLRAEDTAVYHCAKLPMFFEDWGQGTLVTVSN
notes: as for B12
As to B17, the binding result in [4], in test [5] and in [6] was “no binding (tested: 405 nM)” throughout.

B18: BMS3h-202 (other)
VH: EVQLLESGGGLVQPGGSLRLSCAASGFTFPTAEMVWVRQAPGKGLEWVSSISASGGSTYYADSVKGRFTISRDNSKNTLYLQMNSLRAEDTAVYYCAKEPVSYVATFDYWGQGTLVTVSS
notes: dAb, single VH
Consider B18, for which, in test [1], the EC50 is 3700 nM and 3000 nM.
